Test results published in patent US11091546B2, “Optimized PNE-based chimeric receptor T cell switches and uses thereof” (The Scripps Research Institute, priority 2015, dated 2021).

System: U937 (CLL1+) cells
Test: Cytotoxicity assay, sCAR-T cells + anti-CLL1 switches
Type: cell-based
Conditions: with short-dimeric CAR
Excerpt: FIG. 38A illustrates multiple fusion/grafting locations: A=LCNT1 (light chain N terminus version 1), B=HCNT3 (heavy chain N terminus version 3), C=heavy chain C terminus, and D=light chain C terminus). […] Data shown are an average of duplicate samples, and error bars represent SD. Only the NT switches plus the BvCT and By CH1CL1 as references are depicted.
By utilizing the “universal” anti-peptide sCART cell, multiple switches targeting multiple cancer associated antigens can be rapidly developed. An example of this is the generation of peptide engrafted switches against the AML associated antigen CLL1. A series of 6 plasmids were designed into which commercially synthesized gene-blocks encoding scFv sequences were inserted by gibson phase assembly to generate: Light chain wild type, light chain N-terminal, light chain C-terminal, heavy chain wild type, heavy chain N-terminal and heavy chain C-terminal plasmid constructs. […]
Another example (see Example 7) of switch SAR was shown with the anti-CLL1 switch derived from the anti-CLL1 antibody clone. […] Using these switches in combination with the three different CAR constructs (long, short and short dimeric) in cytotoxicity assays with the CLL1^+U937 cell line it was determined that N-terminal bivalent switches with the short-dimeric CAR was the most optimal for immunological synapse for the in vitro killing of U937 cells (FIG. 38D). […]

B1: anti-CLL1 switch A + B: anti-CLL1 Fab switch, N-terminal bivalent (LCNT & HCNT; SEQ ID 102 & 103) (antibody)
heavy: NYHLENEVARLKKLLVGEAAAKEAAAKADIQLQESGPGLVKPSQSLSLTCSVTGYSITSAYYWNWIRQFPGNKLEWMGYISYDGRNNYNPSLKNRISITRDTSKNQFFLKLNSVTTEDTATYYCAKEGDYDVGNYYAMDYWGQGTSVTVSSARTKGPSVFPLAPSSKSTSGGTAALGCLVKDYFPEPVTVSWNSGALTSGVHTFPAVLQSSGLYSLSSVVTVPSSSLGTQTYICNVNHKPSNTKVDKKVEPKSC
light: NYHLENEVARLKKLGGGGSENVLTQSPAIMSASPGEKVTMTCRASSNVISSYVHWYQQRSGASPKLWIYSTSNLASGVPARFSGSGSGTSYSLTISSVEAEDAATYYCQQYSGYPLTFGAGTKLELKRAAAAPSVFIFPPSDEQLKSGTASVVCLLNNFYPREAKVQWKVDNALQSGNSQESVTEQDSKDSTYSLSSTLTLSKADYEKHKVYACEVTHQGLSSPVTKSFNRGEC
modifications: peptide on N-termini; Made in lab - CLL1(1075.7)-HC_NT3 switch antibody polynucleotide; Made in lab - CLL1(1075.7)-LC_NT1 switch antibody polynucleotide
immunological synapse for in vitro killing: most optimal
